The values below come from article PMC3553500 (2013).

The assay addresses GAPDH (Homo sapiens, UniProt P04406). As to the kind of experiment: ELISA. A general note: In an ELISA, binding on a coated surface is turned into a signal by an enzyme label.

GAPDH, sequence (P04406 2-335): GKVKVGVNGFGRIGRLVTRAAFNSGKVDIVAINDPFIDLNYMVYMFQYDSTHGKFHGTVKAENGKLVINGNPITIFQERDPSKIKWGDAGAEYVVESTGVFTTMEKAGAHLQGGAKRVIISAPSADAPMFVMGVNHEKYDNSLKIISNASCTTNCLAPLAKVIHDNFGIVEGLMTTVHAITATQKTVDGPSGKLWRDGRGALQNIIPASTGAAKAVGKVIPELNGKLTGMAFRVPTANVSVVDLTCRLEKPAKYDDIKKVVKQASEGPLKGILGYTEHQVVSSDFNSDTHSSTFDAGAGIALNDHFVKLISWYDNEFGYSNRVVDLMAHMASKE

B1: TRAF2 (protein)
chain: AAASVTPPGSLELLQPGFSKTLLGTKLEAKYLCSACRNVLRRPFQAQCGHRYCSFCLASILSSGPQNCAACVHEGIYEEGISILESSSAFPDNAARREVESLPAVCPSDGCTWKGTLKEYESCHEGRCPLMLTECPACKGLVRLGEKERHLEHECPERSLSCRHCRAPCCGADVKAHHEVCPKFPLTCDGCGKKKIPREKFQDHVKTCGKCRVPCRFHAIGCLETVEGEKQQEHEVQWLREHLAMLLSSVLEAKPLLGDQSHAGSELLQRCESLEKKTATFENIVCVLNREVERVAMTAEACSRQHRLDQDKIEALSSKVQQLERSIGLKDLAMADLEQKVLEMEASTYDGVFIWKISDFARKRQEAVAGRIPAIFSPAFYTSRYGYKMCLRIYLNGDGTGRGTHLSLFFVVMKGPNDALLRWPFNQKVTLMLLDQNNREHVIDAFRPDVTSSSFQRPVNDMNIASGCPLFCPVSKMEAKNSYVRDDAIFIKAIVDLTGL
Consider B1, for which binding was put at a Kd of 96 µM. This lies in the double-digit micromolar range.
